Measured values from patent publication US20030068675, “Position dependent recognition of GNN nucleotide triplets by zinc fingers” (published 2003).
Changes are numbered by the printed parent chain.

Tests used:
Test in all cases: EMSA
Details in all cases: tags: MBP fusion
ZFP SBS#603 = ZFP SBS#603 (synthetic)
Outline: (§1)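 Purified ZFP was titrated against labeled double-stranded target (1 nM or lower, at least 10-fold below expected Kd) carrying the natural binding site with flanks. Binding buffer was 10 mM Tris pH 7.5, 100 mM KCl, 1 mM MgCl2, 0.1 mM ZnCl2, 5 mM DTT, 10% glycerol, 0.02% BSA, with equilibration for at least 45 min. Bound and free target were separated on a 10% polyacrylamide gel.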

ZFP SBS#708 = biological target: T1, ZFP SBS#708 (synthetic)
T1 chain: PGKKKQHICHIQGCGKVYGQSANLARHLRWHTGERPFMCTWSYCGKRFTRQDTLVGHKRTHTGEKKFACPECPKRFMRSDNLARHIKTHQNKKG
Outline: as §1

ZFP SBS#711 = biological target: T2, ZFP SBS#711 (synthetic)
T2 chain: T1 chain with A22G
Outline: as §1

ZFP SBS#710 = ZFP SBS#710 (synthetic)
Sequence of ZFP SBS#710 (synthetic) (chain, as listed by the source): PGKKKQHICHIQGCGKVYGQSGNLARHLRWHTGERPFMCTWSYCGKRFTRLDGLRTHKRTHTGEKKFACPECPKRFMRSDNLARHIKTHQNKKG
Outline: as §1

ZFP SBS#600 = ZFP SBS#600 (synthetic)
Sequence of ZFP SBS#600 (synthetic) (chain, as listed by the source): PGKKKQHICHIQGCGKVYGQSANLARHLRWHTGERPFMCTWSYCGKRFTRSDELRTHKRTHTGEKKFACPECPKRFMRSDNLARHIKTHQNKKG
Outline: as §1

ZFP SBS#709 = biological target: T3, ZFP SBS#709 (synthetic)
T3 chain: T1 chain with Q51K, T53V, G56S
Outline: as §1

ZFP SBS#601 = biological target: T4, ZFP SBS#601 (synthetic)
T4 chain: T1 chain with Q20R, A25T, Q51L, T53G, V55R, G56T
Outline: as §1

ZFP SBS#602 = biological target: T5, ZFP SBS#602 (synthetic)
T5 chain: T1 chain with Q20R, A25T
Outline: as §1

ZFP SBS#665 = biological target: T6, ZFP SBS#665 (synthetic)
T6 chain: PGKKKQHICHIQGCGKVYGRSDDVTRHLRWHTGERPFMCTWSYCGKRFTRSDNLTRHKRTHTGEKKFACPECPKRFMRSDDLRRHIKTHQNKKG
Outline: as §1

ZFP SBS#666 = biological target: T7, ZFP SBS#666 (synthetic)
T7 chain: T6 chain with V24L, D81T, R83K, R84K
Outline: as §1

ZFP SBS#700 = ZFP SBS#700 (synthetic)
Sequence of ZFP SBS#700 (synthetic) (chain, as listed by the source): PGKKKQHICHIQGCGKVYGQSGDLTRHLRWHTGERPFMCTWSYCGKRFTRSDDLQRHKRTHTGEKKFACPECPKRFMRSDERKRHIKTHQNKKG
Outline: as §1

ZFP SBS#699 = ZFP SBS#699 (synthetic)
Sequence of ZFP SBS#699 (synthetic) (chain, as listed by the source): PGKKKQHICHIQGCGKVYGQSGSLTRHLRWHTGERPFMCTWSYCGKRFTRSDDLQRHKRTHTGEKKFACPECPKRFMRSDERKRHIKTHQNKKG
Outline: as §1

ZFP SBS#660 = biological target: T8, ZFP SBS#660 (synthetic)
T8 chain: T1 chain with Q20N, S21R, N23T, R50Q, Q51S, D52G, T53H, V55T, G56R
Outline: as §1

ZFP SBS#661 = ZFP SBS#661 (synthetic)
Sequence of ZFP SBS#661 (synthetic) (chain, as listed by the source): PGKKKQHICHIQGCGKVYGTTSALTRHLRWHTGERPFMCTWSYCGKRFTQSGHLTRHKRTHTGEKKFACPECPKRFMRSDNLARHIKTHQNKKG
Outline: as §1

ZFP SBS#565 = ZFP SBS#565 (synthetic)
Sequence of ZFP SBS#565 (synthetic) (chain, as listed by the source): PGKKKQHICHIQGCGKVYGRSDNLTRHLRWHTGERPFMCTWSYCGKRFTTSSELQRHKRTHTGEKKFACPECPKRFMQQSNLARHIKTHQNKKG
Outline: as §1

ZFP SBS#426 = ZFP SBS#426 (synthetic)
Sequence of ZFP SBS#426 (synthetic) (chain, as listed by the source): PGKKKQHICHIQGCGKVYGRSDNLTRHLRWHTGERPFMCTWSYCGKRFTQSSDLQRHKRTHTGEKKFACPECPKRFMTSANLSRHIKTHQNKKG
Outline: as §1

ZFP SBS#425 = ZFP SBS#425 (synthetic)
Outline: as §1

ZFP SBS#424 = ZFP SBS#424 (synthetic)
Sequence of ZFP SBS#424 (synthetic) (chain, as listed by the source): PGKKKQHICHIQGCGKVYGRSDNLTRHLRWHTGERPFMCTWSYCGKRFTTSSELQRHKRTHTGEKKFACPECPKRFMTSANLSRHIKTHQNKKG
Outline: as §1

ZFP SBS#702 = biological target: T9, ZFP SBS#702 (synthetic)
T9 chain: T6 chain with D23N, V24L, T25A, N53E, T55Q, R78Q, D80G, R83T
Outline: as §1

ZFP SBS#701 = ZFP SBS#701 (synthetic)
Sequence of ZFP SBS#701 (synthetic) (chain, as listed by the source): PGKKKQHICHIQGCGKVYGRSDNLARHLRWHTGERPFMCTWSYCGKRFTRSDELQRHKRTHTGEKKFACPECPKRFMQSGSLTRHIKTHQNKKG
Outline: as §1

ZFP SBS#714 = biological target: T10, ZFP SBS#714 (synthetic)
T10 chain: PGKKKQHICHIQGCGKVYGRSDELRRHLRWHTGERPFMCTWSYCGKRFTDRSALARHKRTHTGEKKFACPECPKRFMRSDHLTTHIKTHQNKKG
Outline: as §1

ZFP SBS#715 = biological target: T11, ZFP SBS#715 (synthetic)
T11 chain: T10 chain with S21A, E23T
Outline: as §1

ZFP SBS#647 = biological target: T12, ZFP SBS#647 (synthetic)
T12 chain: T1 chain with Q51S, T53A, V55A, G56R, S79G, N81A, A83T, R84S
Outline: as §1

ZFP SBS#646 = biological target: T13, ZFP SBS#646 (synthetic)
T13 chain: T1 chain with A22G, Q51S, T53A, V55A, G56R, S79G, N81A, A83T, R84S
Outline: as §1

ZFP SBS#656 = ZFP SBS#656 (synthetic)
Sequence of ZFP SBS#656 (synthetic) (chain, as listed by the source): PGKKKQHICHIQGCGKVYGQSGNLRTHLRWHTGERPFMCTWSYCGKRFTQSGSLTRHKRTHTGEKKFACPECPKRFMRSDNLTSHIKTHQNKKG
Outline: as §1

ZFP SBS#657 = biological target: T14, ZFP SBS#657 (synthetic)
T14 chain: T1 chain with A22G, A25R, R26T, R50Q, Q51S, D52S, V55R, G56R, A83T, R84S
Outline: as §1

ZFP SBS#654 = ZFP SBS#654 (synthetic)
Outline: as §1

ZFP SBS#695 = biological target: T15, ZFP SBS#695 (synthetic)
T15 chain: T10 chain with D22S, E23N, R25T, A53H, T84R
Outline: as §1

ZFP SBS#651 = ZFP SBS#651 (synthetic)
Sequence of ZFP SBS#651 (synthetic) (chain, as listed by the source): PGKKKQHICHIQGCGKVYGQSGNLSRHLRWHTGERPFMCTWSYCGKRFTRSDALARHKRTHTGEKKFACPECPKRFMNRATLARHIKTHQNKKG
Outline: as §1

ZFP SBS#698 = biological target: T16, ZFP SBS#698 (synthetic)
T16 chain: T6 chain with D23E, V24L, N53E, T55S, R78Q, D80H, D81G, R83T, R84S
Outline: as §1

ZFP SBS#697 = biological target: T17, ZFP SBS#697 (synthetic)
T17 chain: T6 chain with D23E, V24L, N53E, T55S, R78Q, D80G, D81H, R83T, R84K
Outline: as §1

ZFP SBS#693 = biological target: T18, ZFP SBS#693 (synthetic)
T18 chain: T1 chain with Q20R, A22D, A25T, Q51A, V55R, G56R, S79L, L82R, A83T, R84A
Outline: as §1

ZFP SBS#689 = biological target: T19, ZFP SBS#689 (synthetic)
T19 chain: T6 chain with D23N, V24L, N53E, T55Q, S79L, D81N, L82R, R83T, R84A
Outline: as §1

ZFP SBS#692 = biological target: T20, ZFP SBS#692 (synthetic, UniProt P08047)
T20 chain: T6 chain with D23N, V24L, N53E, T55Q, D81N, R83T, R84Q
Outline: as §1

ZFP SBS#694 = biological target: T21, ZFP SBS#694 (synthetic)
T21 chain: T1 chain with Q20R, A22D, A25T, Q51A, V55R, G56R, A83T, R84Q
Outline: as §1

ZFP SBS#706 = biological target: T22, ZFP SBS#706 (synthetic, UniProt P08047)
T22 chain: T6 chain with D23H, V24L, T25A, N53S, T55L, D81H, R83S
Outline: as §1

ZFP SBS#705 = biological target: T23, ZFP SBS#705 (synthetic, UniProt P08047)
T23 chain: T6 chain with D23H, V24L, T25A, N53S, T55A, D81H, R83S
Outline: as §1

ZFP SBS#652 = ZFP SBS#652 (synthetic)
Sequence of ZFP SBS#652 (synthetic) (chain, as listed by the source): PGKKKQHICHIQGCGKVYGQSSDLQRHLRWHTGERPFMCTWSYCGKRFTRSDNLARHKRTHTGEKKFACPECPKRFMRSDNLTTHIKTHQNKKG
Outline: as §1

ZFP SBS#653 = biological target: T24, ZFP SBS#653 (synthetic, UniProt P08047)
T24 chain: T6 chain with R20T, S21T, D22S, V24L, T55A, D81N, R83T, R84T
Outline: as §1

Sequence of ZFP SBS#603 (synthetic) (chain, as listed by the source): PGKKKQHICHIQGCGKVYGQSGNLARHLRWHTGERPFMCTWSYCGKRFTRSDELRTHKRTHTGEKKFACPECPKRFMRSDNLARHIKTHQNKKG

B1: GAGTCGGAA (dsDNA)
DNA 1: GAGTCGGAA
DNA 2: TTCCGACTC
Kd (ZFP SBS#603): 167 nM | Kd (ZFP SBS#708): 300 nM | Kd (ZFP SBS#711): 400 nM | Kd (ZFP SBS#710): 400 nM | Kd (ZFP SBS#600): 207 nM | Kd (ZFP SBS#709): 400 nM | Kd (ZFP SBS#601): 607 nM | Kd (ZFP SBS#602): 617 nM

B2: GCGGAGGCGC (dsDNA)
DNA 1: GCGGAGGCGC
DNA 2: GCGCCTCCGC
Kd (ZFP SBS#665): 12.5 nM | Kd (ZFP SBS#666): 0.5 nM

B3: GCGGCGGCAG (dsDNA)
DNA 1: GCGGCGGCAG
DNA 2: CTGCCGCCGC
Kd (ZFP SBS#700): 45 nM | Kd (ZFP SBS#699): 21.5 nM

B4: GAGGGAGTTC (dsDNA)
DNA 1: GAGGGAGTTC
DNA 2: GAACTCCCTC
Kd (ZFP SBS#660): 8.25 nM | Kd (ZFP SBS#661): 1.73 nM

B5: GATGCTGAG (dsDNA)
DNA 1: GATGCTGAG
DNA 2: CTCAGCATC
Kd (ZFP SBS#565): 100 nM | Kd (ZFP SBS#426): 5.5 nM | Kd (ZFP SBS#425): 25 nM | Kd (ZFP SBS#424): 100 nM

B6: GCAGCGGAGC (dsDNA)
DNA 1: GCAGCGGAGC
DNA 2: GCTCCGCTGC
Kd (ZFP SBS#702): 73.5 nM | Kd (ZFP SBS#701): 50.5 nM

B7: TGGGTCGCGG (dsDNA)
DNA 1: TGGGTCGCGG
DNA 2: CCGCGACCCA
Kd (ZFP SBS#714): 200 nM | Kd (ZFP SBS#715): 0.46 nM

B8: TTGGTGGAAG (dsDNA)
DNA 1: TTGGTGGAAG
DNA 2: CTTCCACCAA
Kd (ZFP SBS#647): 40 nM | Kd (ZFP SBS#646): 35 nM

B9: TAGGCATAAA (dsDNA)
DNA 1: TAGGCATAAA
DNA 2: TTTATGCCTA
Kd (ZFP SBS#656): 540 nM | Kd (ZFP SBS#657): 300 nM | Kd (ZFP SBS#654): 105 nM

B10: GGGGGCGAGC (dsDNA)
DNA 1: GGGGGCGAGC
DNA 2: GCTCGCCCCC
Kd (ZFP SBS#695): 850 nM

B11: GTTGTGGAAT (dsDNA)
DNA 1: GTTGTGGAAT
DNA 2: ATTCCACAAC
Kd (ZFP SBS#651): 67.5 nM

B12: TGAGCGGCGG (dsDNA)
DNA 1: TGAGCGGCGG
DNA 2: CCGCCGCTCA
Kd (ZFP SBS#698): 300 nM | Kd (ZFP SBS#697): 200 nM

B13: AAGGCGGAGA (dsDNA)
DNA 1: AAGGCGGAGA
DNA 2: TCTCCGCCTT
Kd (ZFP SBS#693): 95 nM | Kd (ZFP SBS#689): 82.5 nM | Kd (ZFP SBS#692): 51 nM | Kd (ZFP SBS#694): 28.5 nM

B14: GGGGTGGGGC (dsDNA)
DNA 1: GGGGTGGGGC
DNA 2: GCCCCACCCC
Kd (ZFP SBS#706): 0.05 nM | Kd (ZFP SBS#705): 0.01 nM

B15: TAGGAGGCTG (dsDNA)
DNA 1: TAGGAGGCTG
DNA 2: CAGCCTCCTA
Kd (ZFP SBS#652): 1.5 nM | Kd (ZFP SBS#653): 5.5 nM
